Measurements reported in article PMC11479587, “Early steps of protein disaggregation by Hsp70 chaperone and class B J-domain proteins are shaped by Hsp110” (eLife, 2024).

B1: Sse1 (natural protein, yeast (S. cerevisiae), UniProt P32589 1-693, looked up)
chain: MSTPFGLDLGNNNSVLAVARNRGIDIVVNEVSNRSTPSVVGFGPKNRYLGETGKNKQTSNIKNTVANLKRIIGLDYHHPDFEQESKHFTSKLVELDDKKTGAEVRFAGEKHVFSATQLAAMFIDKVKDTVKQDTKANITDVCIAVPPWYTEEQRYNIADAARIAGLNPVRIVNDVTAAGVSYGIFKTDLPEGEEKPRIVAFVDIGHSSYTCSIMAFKKGQLKVLGTACDKHFGGRDFDLAITEHFADEFKTKYKIDIRENPKAYNRILTAAEKLKKVLSANTNAPFSVESVMNDVDVSSQLSREELEELVKPLLERVTEPVTKALAQAKLSAEEVDFVEIIGGTTRIPTLKQSISEAFGKPLSTTLNQDEAIAKGAAFICAIHSPTLRVRPFKFEDIHPYSVSYSWDKQVEDEDHMEVFPAGSSFPSTKLITLNRTGDFSMAASYTDITQLPPNTPEQIANWEITGVQLPEGQDSVPVKLKLRCDPSGLHTIEEAYTIEDIEVEEPIPLPEDAPEDAEQEFKKVTKTVKKDDLTIVAHTFGLDAKKLNELIEKENEMLAQDKLVAETEDRKNTLEEYIYTLRGKLEEEYAPFASDAEKTKLQGMLNKAEEWLYDEGFDSIKAKYIAKYEELASLGNIIRGRYLAKEEEKKQAIRSKQEASQMAAMAEKLAAQRKAEAEKKEEKKDTEGDVDMD
B2: Ssa1 (natural protein)
chain: not shown
notes: Ssa1, yeast Hsp70 chaperone, Uniprot ID P10591; also called Hsp70; yeast Hsp70; source: recombinant, expressed from pCA533-His6-SUMO-SSA1, purified using published protocols (Andréasson et al., 2008a)

How the values were obtained:
Ssa1 [1] = target: B2; assay: cell-based or functional assay
Chain of Ssa1 (P10591 whole entry): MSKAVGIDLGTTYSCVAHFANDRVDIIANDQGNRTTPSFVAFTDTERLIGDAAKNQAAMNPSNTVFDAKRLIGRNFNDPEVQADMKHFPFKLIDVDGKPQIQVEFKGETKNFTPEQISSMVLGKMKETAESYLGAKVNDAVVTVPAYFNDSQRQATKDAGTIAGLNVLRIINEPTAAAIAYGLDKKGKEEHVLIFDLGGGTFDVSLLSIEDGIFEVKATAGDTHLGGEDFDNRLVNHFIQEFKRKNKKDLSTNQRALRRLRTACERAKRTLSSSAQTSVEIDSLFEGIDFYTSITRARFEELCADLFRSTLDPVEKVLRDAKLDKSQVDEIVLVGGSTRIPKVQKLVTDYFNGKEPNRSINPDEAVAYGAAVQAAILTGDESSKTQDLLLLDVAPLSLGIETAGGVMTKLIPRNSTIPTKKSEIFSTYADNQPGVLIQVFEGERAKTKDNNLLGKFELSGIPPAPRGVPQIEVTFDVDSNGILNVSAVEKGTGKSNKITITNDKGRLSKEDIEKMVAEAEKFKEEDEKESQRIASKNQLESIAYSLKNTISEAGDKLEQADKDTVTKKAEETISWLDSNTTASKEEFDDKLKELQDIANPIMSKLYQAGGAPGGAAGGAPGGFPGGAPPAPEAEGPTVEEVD

Sse1 = target: B1; assay: BLI; His-Sis1 (0.4 µM, to saturation) on the Ni-NTA sensor through the His6-SUMO tag; 1 µM Ssa1 with increasing concentrations of Sse1 or Sse1-2; buffer A with 5 mM ATP and 2 mM DTT; settings: both partners purified
His6-SUMO-Sse1 = target: T1, His6-SUMO-Sse1 (yeast (S. cerevisiae), UniProt P32589 1-693); assay: BLI; His-Sse1 (2.5 µM) or His-Sse1-2 (1 µM) on the Ni-NTA sensor through the His6-SUMO tag; Ssa1 at 32-16,000 nM; level of binding fitted with a one site-specific binding model; buffer A with 5 mM ATP and 2 mM DTT; settings: both partners purified
T1 construct: Sse1, yeast Hsp110 nucleotide exchange factor, Uniprot ID P32589; Held on the Ni-NTA BLI sensor through the His6-SUMO tag; also called His-Sse1; His-See1; source: recombinant, purified as Sse1 with the proteolytic cleavage of the tag omitted
T1 sequence (looked up): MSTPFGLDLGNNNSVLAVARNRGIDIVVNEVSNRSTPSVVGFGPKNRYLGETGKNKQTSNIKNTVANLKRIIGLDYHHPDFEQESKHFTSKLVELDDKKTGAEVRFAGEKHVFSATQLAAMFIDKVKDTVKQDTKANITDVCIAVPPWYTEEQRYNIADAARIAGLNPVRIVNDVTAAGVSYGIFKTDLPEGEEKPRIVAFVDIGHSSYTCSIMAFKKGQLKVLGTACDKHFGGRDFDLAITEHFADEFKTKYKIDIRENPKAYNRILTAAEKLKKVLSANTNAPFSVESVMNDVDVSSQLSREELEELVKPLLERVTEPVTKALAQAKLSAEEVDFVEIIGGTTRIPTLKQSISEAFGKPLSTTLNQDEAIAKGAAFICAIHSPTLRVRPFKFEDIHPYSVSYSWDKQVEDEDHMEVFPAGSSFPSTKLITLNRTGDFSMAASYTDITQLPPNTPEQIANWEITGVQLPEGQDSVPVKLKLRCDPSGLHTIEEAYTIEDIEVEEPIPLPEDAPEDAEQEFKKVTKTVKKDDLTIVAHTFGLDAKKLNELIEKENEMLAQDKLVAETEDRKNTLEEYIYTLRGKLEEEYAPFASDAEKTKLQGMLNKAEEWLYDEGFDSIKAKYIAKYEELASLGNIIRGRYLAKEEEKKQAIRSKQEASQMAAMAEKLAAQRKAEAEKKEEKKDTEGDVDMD

Ssa1 [2] = target: B2; assay: BLI; His-Sis1 (0.4 µM, to saturation) on the Ni-NTA sensor through the His6-SUMO tag; 1 µM Ssa1 with increasing concentrations of Sse1 or Sse1-2; buffer A with 5 mM ATP and 2 mM DTT; settings: both partners purified

B1 was tested, and the “inhibition of the refolding of aggregated luciferase by Ssa1-Ydj1 (1 µM each), titration of Sse1, activity after 1 hr” value (Ssa1 [1]) was 0.1 µM.

B2: binds (Sse1); binds (His6-SUMO-Sse1).

B3: Sis1 immobilised through the His6-SUMO tag (natural protein, yeast (S. cerevisiae), UniProt P25294 1-352, looked up)
chain: MVKETKLYDLLGVSPSANEQELKKGYRKAALKYHPDKPTGDTEKFKEISEAFEILNDPQKREIYDQYGLEAARSGGPSFGPGGPGGAGGAGGFPGGAGGFSGGHAFSNEDAFNIFSQFFGGSSPFGGADDSGFSFSSYPSGGGAGMGGMPGGMGGMHGGMGGMPGGFRSASSSPTYPEEETVQVNLPVSLEDLFVGKKKSFKIGRKGPHGASEKTQIDIQLKPGWKAGTKITYKNQGDYNPQTGRRKTLQFVIQEKSHPNFKRDGDDLIYTLPLSFKESLLGFSKTIQTIDGRTLPLSRVQPVQPSQTSTYPGQGMPTPKNPSQRGNLIVKYKVDYPISLNDAQKRAIDENF
notes: Sis1, yeast class B J-domain protein, Uniprot ID P25294; also called His-Sis1; class B JDP
B3: binds (Ssa1 [2]).
